# ± gives the standard error. This sample holds only a part of the variants without activity.
# B1: glmS ribozyme (parent)
# chain: AUAAAAGCGCCAGAACUACAGAAAUGUAGUUGACGAGGAGGAGGUUUAUCGAAUUUUCGGCGGAUGCCUCCAAA
# Variants of: B1
# Experiment: self-cleavage kobs at 2500 uM GlcN6P; higher = faster cleavage; RNA array
# Details: with glucosamine-6-phosphate
# Method in brief: (§1)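 Sequenced MiSeq chips were the platform: E. coli RNA polymerase transcribed barcoded ribozyme variants on them in situ, and a hybridised Cy3 probe tracked these at 37 °C. After glucosamine-6-phosphate (40 μM to 10 mM) in HEPES/KCl/Mg(OAc)2 buffer was flowed in, tiles were imaged over ~14 h. Signals normalised to baseline and to non-cleaving reference variants were reduced to per-tile medians and fit to one- or two-exponential decays to obtain kobs. kcat and KM were derived through weighted Michaelis–Menten fits across concentrations.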
row,Variant,self-cleavage kobs at 2500 uM GlcN6P [s⁻¹]
1,G32C A64G C70A,< 1e-05
2,G40U U49A G62C C68U,< 1e-05
3,A42G A48U U56A,0.000146 ± 4.2e-05
4,G37C C67U C71A,5.9e-05 ± 2.4e-05
5,U47A C50A G59U G66C,< 1e-05
6,G40C G44A U54A C61A A64G,< 1e-05
7,A33G A36G G38U C61U C71A,< 1e-05
8,G43A U55C G59U C67G,< 1e-05
9,G37U G44U G59A C70U,< 1e-05
10,A39C G59A G62C,< 1e-05
11,A33C U56G,5.24e-05 ± 2.2e-05
12,A36U A48U U56C,< 1e-05
13,G37U G44U C70G,< 1e-05
14,A33C U56C C71A,< 1e-05
15,G38A G51C A52U G62A,< 1e-05
16,A36U U69G C71A,0.000556 ± 0.00021
17,A36C G41U G43U G51C C58G G60A C67A,< 1e-05
18,U30A C50G U56A C67U,7.78e-05 ± 1.9e-05
19,G35U G41A A52U C71U,< 1e-05
20,U45G G60A C67G C68U,< 1e-05
21,A33G U46A G59C C67G C68G,4.87e-05 ± 2.1e-05
22,G32U G43A A64G,< 1e-05
23,U47A A48C G51U,< 1e-05
24,G35A C50G U54G A64C,7.23e-05 ± 2.7e-05

row,Variant,self-cleavage kobs at 2500 uM GlcN6P [s⁻¹]
1,A42C U65C C71G,< 1e-05
2,A36U G38C U69C,< 1e-05
3,G32C A33C G37C A48C C71U,< 1e-05
4,A48C U55C G63U,< 1e-05
5,G38U U49G U57A C70G,6.84e-05 ± 3.3e-05
6,C34A A36C G37U G51U,< 1e-05
7,G35C A53G C71U,< 1e-05
8,U47C C67G C70U,0.000129 ± 4.1e-05
9,U30C A42C U46A,< 1e-05
10,A33C G60U G62C,< 1e-05
11,U46G G59C C68U C70A,< 1e-05
12,G43U A48U G62A C67A,< 1e-05
13,A52G U57G C58U,4.96e-05 ± 1.8e-05
14,U31C G37C A48G U49G U54C C71A,< 1e-05
15,G40C U54G C70U,0.000933 ± 0.00021
16,G40C A64U C68U,< 1e-05
17,G43U G44A C50U C61G,< 1e-05
18,U31G G32U C58U,8.74e-05 ± 2.9e-05
19,U46G U54C C58G U65A,< 1e-05
20,G29C C50U A53G C71U,< 1e-05
21,A48U U56A,9.99e-05 ± 3.4e-05
22,G37U A39U G44C C50G C70U,< 1e-05
23,A39G U45A A64U,0.000381 ± 0.00012
24,U30A A36U C71A,< 1e-05

row,Variant,self-cleavage kobs at 2500 uM GlcN6P [s⁻¹]
1,A48G C50G A52U,< 1e-05
2,G41U C50G U57C C58U C70U,< 1e-05
3,A53U U54C U55A A64G,0.00369 ± 0.00074
4,G41A A53C U54C G60C G63U,< 1e-05
5,G29C G43U G62C,< 1e-05
6,C34A A36U A52G,< 1e-05
7,G32A G51U,< 1e-05
8,G51C C67G C71U,< 1e-05
9,A33C U49C C70U,< 1e-05
10,G37C G41C U47C G59U,< 1e-05
11,U31G G32A A64G,0.000581 ± 0.00022
12,A39U G59A A64C,< 1e-05
13,C34G C58A C71U,< 1e-05
14,A33U G35A U45G C50G C70A,< 1e-05
15,G35A U69C,< 1e-05
16,U45A U47A G59U C61A,< 1e-05
17,G37A G40C U47G U56G G60C C71G,< 1e-05
18,A33C G59C A64G G66A C70A,< 1e-05
19,G41C A52C U55G G60C C68U,< 1e-05
20,U31A A39G C67U,0.00111 ± 0.0004
21,A33C A53U U54G,0.000173 ± 4.3e-05
22,U31G A33C G38C A39G G62A,< 1e-05
23,G43A U46C A53G,< 1e-05
24,G38U U54G C71A,< 1e-05

row,Variant,self-cleavage kobs at 2500 uM GlcN6P [s⁻¹]
1,U30C G37C G38C C61U,< 1e-05
2,U31G G32A U56G,9.1e-05 ± 2.5e-05
3,A33C G40U G51U U54A,< 1e-05
4,G35C U46C A52C U54C,< 1e-05
5,A39G G66A U69G,3.43e-05 ± 1.3e-05
6,C34A U47C A53U,< 1e-05
7,A42U A53G C61A C67G,< 1e-05
8,G44A A48G C67G,8.88e-05 ± 2.9e-05
9,G35U C58G A64U,< 1e-05
10,G32C G38U C58G,< 1e-05
11,U45A U47G G51U A64G U65G,< 1e-05
12,C34A G40C U46C U47A G59C,< 1e-05
13,U46G G51U C67A,< 1e-05
14,A53U U56A C68U,0.000647 ± 0.00019
15,U31G G38C U46C U65G,< 1e-05
16,C50G U56G G59U,8.66e-05 ± 3.9e-05
17,G38C A53U,< 1e-05
18,G41A U49C U57A G59U C68G,< 1e-05
19,U30A G43C G51C C67G,< 1e-05
20,G40U U47G U54C,0.00079 ± 0.00014
21,G41C G59U C67U,< 1e-05
22,U45G U56A C71U,0.000974 ± 0.00025
23,U30A G40A C71A,0.00142 ± 0.0005
24,A36U U55C C58G,< 1e-05

row,Variant,self-cleavage kobs at 2500 uM GlcN6P [s⁻¹]
1,G37A G40C A42G,0.000126 ± 4.4e-05
2,A39U G66A C68G,4.5e-05 ± 2e-05
3,G40C U56C C71A,9.43e-05 ± 2.2e-05
4,G32C G35U G41C C58A A64G,< 1e-05
5,A33U G41U G62U,< 1e-05
6,G38A A39U A64C,< 1e-05
7,G32C G62C C67U,< 1e-05
8,U56C C67A C71G,< 1e-05
9,A39G C50U U55A C70U,4.43e-05 ± 1.7e-05
10,G32C A39U C50G A52C U57A A64U,< 1e-05
11,A36C C61G G63U C68A,0.000112 ± 3.9e-05
12,A48G U49G A52U A53G,< 1e-05
13,U31C U56C C70G,< 1e-05
14,G35A G40U G51A U69G,< 1e-05
15,U30A U31A G40A U57G,< 1e-05
16,U31G G41A G63U,< 1e-05
17,A33C G37A U47A,< 1e-05
18,G41A A42U G62A,< 1e-05
19,G37U A53C,< 1e-05
20,C34G G35C G51C U57G C58U,< 1e-05
21,G41U A53U U56G,0.00031 ± 9.3e-05

# Variants of: B1
# Experiment: self-cleavage kobs at 10000 uM GlcN6P; higher = faster cleavage; RNA array
# Details: with glucosamine-6-phosphate
# Method in brief: as §1
row,Variant,self-cleavage kobs at 10000 uM GlcN6P [s⁻¹]
1,A12C U31A A42G A52G,0.000429 ± 9.6e-05
2,C8G A14G A33U,< 1e-05
3,C8U G32A A48U A53U U55A,< 1e-05
4,G7U G13U G63U,< 1e-05
5,C11G U31G G35U A36U U49C A52U,< 1e-05
6,A33C U56G,5.35e-05 ± 1e-05
7,C8G U45G U55C C71A,< 1e-05
8,C8A G29C U46A,< 1e-05
9,A36U U69G C71A,5.84e-05 ± 1.8e-05
10,A12U C16G G29A C67G,0.000109 ± 2.3e-05
11,A6U C10G G62U C67G C71G,2.87e-05 ± 1.4e-05
12,A6C G29A C34U G43U G44U,< 1e-05
13,G35C A53G C71U,< 1e-05
14,U47C C67G C70U,8.24e-05 ± 1.8e-05
15,G7C C68A C71A,< 1e-05
16,G9A C11U U30C A52U G62U,< 1e-05
17,G40C A64U C68U,< 1e-05
18,G7U U47A U57G,< 1e-05
19,A39G U45A A64U,0.000499 ± 0.00011

row,Variant,self-cleavage kobs at 10000 uM GlcN6P [s⁻¹]
1,U30A A36U C71A,< 1e-05
2,U31G G32A A64G,0.00106 ± 0.00026
3,C8A G9A C10U A33G A36G A39U U47C C58A,< 1e-05
4,C10U U49G C61U,< 1e-05
5,G35A U69C,< 1e-05
6,G7A G9A A53G G60A U65A C67A,0.000102 ± 2.7e-05
7,A33C G59C A64G G66A C70A,< 1e-05
8,G9U G32C C34G U54G A64U C71A,< 1e-05
9,C8G G9C G13U G37U A64G,< 1e-05
10,C10U C16G C61A C71U,< 1e-05
11,C10G G13A G41C C50U C67A,< 1e-05
12,U31G G32A U56G,0.000522 ± 9.3e-05
13,G7A C10G C19A U47A G51A,< 1e-05
14,A12G A36U A48C A53C G66A C70G,< 1e-05
15,A12C A15U G40U,0.00018 ± 4e-05
16,C8A A15U U47C U69A,< 1e-05
17,G9U G32U G37U,< 1e-05
18,U46G G51U C67A,< 1e-05
19,C8U C34A A53C C71A,< 1e-05

row,Variant,self-cleavage kobs at 10000 uM GlcN6P [s⁻¹]
1,C11G A39U G44U A48C,< 1e-05
2,G38C A53U,< 1e-05
3,C11G U31C A36C,< 1e-05
4,C11A A12C U57G C67G,3.81e-05 ± 1.5e-05
5,C11U A42C U55C C70U,< 1e-05
6,G32C G62C C67U,< 1e-05
7,C11U U31C U56C,9.92e-05 ± 2.1e-05
8,G7U C34G G59C,< 1e-05
9,G7A A14G A39G C71U,5.55e-05 ± 1.7e-05
10,A6G C34A A39G,< 1e-05
11,A12G G51U C58G,< 1e-05
12,C10G C71A,< 1e-05
13,C11A U30G C67A,9.25e-05 ± 1.7e-05
14,A6G U31C C34G,< 1e-05
15,A6U G7U G13U U31C,< 1e-05
16,C10U G38U U46A C58U,< 1e-05
17,G37U A53C,< 1e-05
18,G7C A14G A39C A48G A53U,< 1e-05
